Test results taken from article PMC5639694 (Journal of medicinal chemistry, 2017).
Square brackets hold non-standard residues; d marks the D form. Dap = NC[C@H](N)C(=O)O

What was measured:
[1] = biological target: mouse melanocortin 1 receptor (mouse) (UniProt Q01727)
[2] = biological target: mouse melanocortin 3 receptor (mouse) (UniProt P33033)
[3] = biological target: mouse melanocortin 5 receptor (mouse) (UniProt P41149)
mMC4R [4] = biological target: T1, mMC4R (Mus musculus, UniProt P56450); settings: AGRP/NDP-MSH chimeric ligands; cited from earlier work
mMC4R [5] = biological target: T1, mMC4R; settings: read-out: mMC4R EC50; agonist; previously reported values; cited from earlier work
mMC5R = mMC5R (Mus musculus, UniProt P41149); settings: read-out: mMC5R EC50; agonist; previously reported values; cited from earlier work
[6] = biological target: mouse melanocortin 4 receptor (mouse) (UniProt P56450)
mouse melanocortin 4 receptor (mouse), sequence (P56450 whole entry): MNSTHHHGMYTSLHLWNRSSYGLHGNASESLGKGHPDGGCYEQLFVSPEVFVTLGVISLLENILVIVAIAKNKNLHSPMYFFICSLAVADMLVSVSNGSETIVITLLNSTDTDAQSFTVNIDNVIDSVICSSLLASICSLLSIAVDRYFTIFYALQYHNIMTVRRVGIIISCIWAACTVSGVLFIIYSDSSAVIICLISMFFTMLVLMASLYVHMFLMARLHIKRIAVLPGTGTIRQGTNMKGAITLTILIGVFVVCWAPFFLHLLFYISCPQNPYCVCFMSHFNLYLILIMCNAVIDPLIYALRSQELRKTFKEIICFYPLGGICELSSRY

mouse melanocortin 1 receptor (mouse), sequence (Q01727 whole entry): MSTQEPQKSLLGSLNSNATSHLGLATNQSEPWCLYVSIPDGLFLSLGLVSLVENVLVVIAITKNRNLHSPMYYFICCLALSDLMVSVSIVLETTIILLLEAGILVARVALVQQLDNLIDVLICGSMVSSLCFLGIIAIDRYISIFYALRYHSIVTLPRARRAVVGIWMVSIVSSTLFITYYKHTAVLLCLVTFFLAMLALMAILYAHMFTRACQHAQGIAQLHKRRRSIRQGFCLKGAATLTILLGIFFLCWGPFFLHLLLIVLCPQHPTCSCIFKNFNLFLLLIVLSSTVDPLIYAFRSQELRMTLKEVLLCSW
mouse melanocortin 5 receptor (mouse), sequence (P41149 whole entry): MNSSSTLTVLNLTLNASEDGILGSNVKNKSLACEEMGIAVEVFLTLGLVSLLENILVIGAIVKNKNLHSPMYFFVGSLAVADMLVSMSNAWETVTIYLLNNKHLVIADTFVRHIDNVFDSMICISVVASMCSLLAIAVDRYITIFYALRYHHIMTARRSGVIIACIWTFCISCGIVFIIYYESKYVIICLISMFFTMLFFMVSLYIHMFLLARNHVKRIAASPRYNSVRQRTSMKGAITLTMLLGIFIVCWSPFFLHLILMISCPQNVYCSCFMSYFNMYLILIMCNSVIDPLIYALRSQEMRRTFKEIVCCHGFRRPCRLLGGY
T1 sequence (P56450 whole entry): as the sequence (P56450 whole entry) above
mouse melanocortin 3 receptor (mouse), sequence (P33033 whole entry): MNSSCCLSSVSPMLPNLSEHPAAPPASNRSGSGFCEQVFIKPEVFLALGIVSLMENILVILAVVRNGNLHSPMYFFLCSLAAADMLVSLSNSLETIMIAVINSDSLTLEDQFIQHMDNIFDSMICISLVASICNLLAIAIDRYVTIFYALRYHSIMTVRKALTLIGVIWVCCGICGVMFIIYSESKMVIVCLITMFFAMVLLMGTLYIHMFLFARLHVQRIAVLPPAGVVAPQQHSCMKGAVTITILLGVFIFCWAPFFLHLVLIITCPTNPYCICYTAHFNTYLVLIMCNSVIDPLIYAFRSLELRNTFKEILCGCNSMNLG
mMC5R, sequence (P41149 whole entry): as the sequence (P41149 whole entry) above

cyclo(PH[dF]RW[Dap]AF[dP])
agonist EC50 (cAMP AlphaScreen, HEK293 cells stably expressing the receptor) [1]: 24 nM | agonist EC50 (cAMP AlphaScreen, HEK293 cells stably expressing the receptor) [2]: 260 nM | agonist EC50 (cAMP AlphaScreen, HEK293 cells stably expressing the receptor) [3]: 18 nM

Tyr-c[Asp-His-DPhe-Arg-Trp-Asn-Ala-Phe-Dap]-Tyr-NH2
selectivity for the mMC4R over the mMC3R (reported) (mMC4R [4]): 5 fold

Tyr-c[Cys-His-DPhe-Arg-Trp-Asn-Ala-Phe-Cys]-Tyr-NH2
selectivity for the mMC4R over the mMC3R (reported) (mMC4R [4]): 7 fold

CC(=O)N[C@@H](Cc1cnc[nH]1)C(=O)N[C@H](Cc1ccccc1)C(=O)N[C@@H](CCCN=C(N)N)C(=O)N[C@@H](Cc1c[nH]c2ccccc12)C(N)=O [HfRW, Ac-His-DPhe-Arg-Trp-NH2]
EC50 (mMC4R [5]): 14 ± 2 nM | EC50 (mMC5R): 10 ± 3 nM

B1: c[Pro-His-DPhe-Arg-Trp-Asn-Ala-Phe-DPro] (peptide)
peptide: cyclo(PH[dF]RWNAF[dP])
SMILES: C[C@@H]1NC(=O)[C@H](CC(N)=O)NC(=O)[C@H](Cc2c[nH]c3ccccc23)NC(=O)[C@H](CCCNC(=N)N)NC(=O)[C@@H](Cc2ccccc2)NC(=O)[C@H](Cc2c[nH]cn2)NC(=O)[C@@H]2CCCN2C(=O)[C@H]2CCCN2C(=O)[C@H](Cc2ccccc2)NC1=O
agonist EC50 (cAMP AlphaScreen, HEK293 cells stably expressing the receptor) [1]: 0.35 nM | agonist EC50 (cAMP AlphaScreen, HEK293 cells stably expressing the receptor) [2]: 32 nM | agonist EC50 (cAMP AlphaScreen, HEK293 cells stably expressing the receptor) [6]: 1.4 nM | agonist EC50 (cAMP AlphaScreen, HEK293 cells stably expressing the receptor) [3]: 0.45 nM

B2: c[Pro-His-DPhe-Arg-Trp-Asn-Ala-DPro] (peptide)
peptide: cyclo(PH[dF]RWNA[dP])
SMILES: C[C@@H]1NC(=O)[C@H](CC(N)=O)NC(=O)[C@H](Cc2c[nH]c3ccccc23)NC(=O)[C@H](CCCNC(=N)N)NC(=O)[C@@H](Cc2ccccc2)NC(=O)[C@H](Cc2c[nH]cn2)NC(=O)[C@@H]2CCCN2C(=O)[C@H]2CCCN2C1=O
agonist EC50 (cAMP AlphaScreen, HEK293 cells stably expressing the receptor) [1]: 12 nM | agonist EC50 (cAMP AlphaScreen, HEK293 cells stably expressing the receptor) [6]: 29 nM | agonist EC50 (cAMP AlphaScreen, HEK293 cells stably expressing the receptor) [3]: 2.1 nM
